Assay: yeast display, Sf9 membrane polyspecificity reagent, FACS + sequencing; frameworks hold sequencing errors
Summary of the method: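 Galactose-induced (36–48 hours) yeast carrying a synthetic nanobody display library were exposed to 10% biotinylated, detergent-solubilized Sf9 membrane reagent at 4 °C for 1 hour. FACS followed streptavidin microbead enrichment, using low and high (top ~1%) gates for expression (anti-HA) and reagent binding (streptavidin). Colony PCR, MiSeq 2 × 250 sequencing and CDR-length filtering followed. Labels for polyreactivity reflect the gate of origin.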

Row | Sequence | polyreactivity (PSR sort gate)
1 | QVQLVESGGGLVQAGGSLRLSCAASGIIFDTYAMGWYRPAPGKEREFVARISYSGGTTYYADSVKGRFTSSRDNAKNTVYLQMNSLKPEDTAVYYCATVSRRFYRWSSRYDYWGQGTQVTVSS | high polyreactivity
2 | QVQLVESGGGLVQAGGSLRLSCAASGFIFYNALGWYRQAPGKERELVAAISSGGNTNYADSVKGRFTISRDNAKNTVYLQMNSLKPEDTAVYYCNAGLYQYDGWANYIRYDYWGQGTQVTVSS | low polyreactivity
3 | QVQLVESGGGLVQAGGSLRLSCAASGITFRFNARVWYRQEPGKEREFVAAITYSGDSTYYADSVKGRFTISRDNAKNTVYLQMNSLKPEDTAVYYCAADYYAISRRIFYYWGQGTQVTVSS | low polyreactivity
4 | QVQLVESGGGLVQAGGSLRLSCAASGSIFDSNNMVWYRQAPGKERELVAGISTGGSTNYADSVKGRFTISRDNAKNTVYLQMNSLKPEDTAVYYCNADLGSSYDWGQGTQVTVSS | low polyreactivity
5 | QVQLVESGGGLVQAGGSLRLSCAASGSIFEAYAMGWYRQAPGKERELVAAITQSGGSTYYADSVKGRFTISRDNAKNTVYLQMNSLKPEDTAVYYCAADFKYRGPSGDYDYWGQGTQVTVSS | low polyreactivity
6 | QFHLVDSGGGLVQAGGRLRLSCPASGGICYQYAMGWYRQAPGKEREFVAAISRRGGSTYYADSVKGRFTISRDNAKNTVYLQMNSLKPEDTAVYYCAAAPSTRGGYQQMDSWGQGTQVTVSS | high polyreactivity
7 | QDQLVESGGGLFQAGGSLRLSCAASGRTFYTYAMGRYRPAPRKERELVAAITSGDGTYYADSVKGRFTISRDNAKNTVYLQMNSLKPEDTAVYYCADTRTYQLYRWAPRYYYWGQGTQVTVSS | high polyreactivity
8 | QVQLVESGGGLVQAGGSLRLSCAASGFTFYYYAMGWYRQAPGKERELVATISRSGGSTYYADSVKGRFTISRDNAKNTVYLQMNSLKPEDTAVYYCAARSYKSPRDYDYWGQGTQVTVSS | high polyreactivity
9 | QVQLVESGGGLVQAGGSLRLSCAASGFIFYYYAMGWYRQAPGKERELVAAISWSGARTYYADSVKGRFTISRDNAKNTVYLQMNSLKPEDTAVYYCNAVAFYPRSSRSWRLDYWGQGTQVTVSS | high polyreactivity
10 | QVQLVESGGGLVQAGGSLRLSCAASGSTFWSNAMGWYRQAPGKERELVATINSGDGTNYADSVKGRFTISRDNAKNTVYLQMNSLKPEDTAVYYCAAEKYYPWGWYTYDYWGQGTQVTVSS | high polyreactivity
11 | QVQLVESGGGLVQAGGSLRLSCAASGRIFLRNDMGWYRQAPGKERELFAGISSDGSTYYADSVKGRFTISRDNAKNTVYLQMNSLKPEDTAVYYCAAERWGNPTDYQFWRPYDYWGQGTKVTVSS | low polyreactivity
12 | KVQLEESGGGLVQSGGILRLSCAASGSTLWSNTMGWYRQEQGKERELVDAISSGGGSTYADSVKGRFTISRDNAKNTVYLQMNSLKPEDTAVFYCAASAYYYRHSSWHRSDYWGQGTQVTVSS | high polyreactivity
13 | QVQLVESGGGLVQAGGSLRLSCAASVRTSRLYAMGWYRQAPGKERELDASITRGGSTYADSVKGRFTISRDNAKNTVYLQMNSLKPEDTAVDYCNAELYVPPYDDDYWGQGTQVTVSS | high polyreactivity
14 | QVHLVESGGGLVQAGGSLRLSCAGSGRTFRYYAMGWYGQAPGKERELVAAISVRTGSTSDADSVKGRFTISRDNAKNTVYLQMNSLNPEDTAVYYCAATSRYFQPPGYGGGRIGYGYWGQGTQVTVSS | high polyreactivity
15 | QVQLVESGGGLVHAGGSLRLSCAASGSIFVRNDMGWYRPAPGKERELVAVITRSAGGTYYADSVKGRFTISRDTAKNSVYFQMNSLKPEDTAFYYCAASPSTPNKYGSWGHGTQVTVSS | high polyreactivity
16 | QVHLLESGGGLVKAGGILRLSCAASGYIFPRYAMGSYRQSPGKDRELVAAITSGGSTYYADSVKGRFTISRDNAKNTVYLQMNSLKPEDTAVYYCIDPYHGREYEWGQGTQVTVSS | high polyreactivity
17 | QVQLVESGGGLVQAGGSLRLSCAASGRIFNSNTMGWYRQAPGKERELVAAITYSGGSTYYADSVKGRFTISRDNAKNTVYLQMNSLNPEDTAVYYCAADFWEYDGPWYANDYDSWGQGTQVTVSS | low polyreactivity
18 | QVQLVESGGGIVQAGGSLRLSCAASGFTFDPYAMGWYRQAPGKERELVAATSWSGGSTYYADSVKGRFTISRDNAKNTVYLQMNSLKPEDTAVYYCAAEWYNSAYYEYDYWGQGTQVTVSS | high polyreactivity
19 | QVQLVESGGGLVQAGGSLRLSCAASGSIFGRYAMGWYRQAPGKERELVAAISWNGGSTYYADSVKGRFTISRDNAKNTVYLQMNILKPEDTAVYYCAADSGYSGYYYWGQGTQVTVSS | high polyreactivity
20 | QVQLVESGGGLVQAGGSLRLSCAASGSTFQRYVMGWYRPAPGKERELVAAITRTGASTYYADSVKGRFTISRDYAKNTVDLQMNSRKPEDTAGYYCAARYPLGSYTYDFWGQGTQVTVSS | high polyreactivity
21 | QVQLVESGGCLVQAGGRLRLSCAASVRTFRSYAMGWYRQAPGKERELVAAISWSGGSTYYADSVKGRFTISRDNAKNTVYLQMTSLKPEDTAGYYCAAEVYYTYVYILDYWGQGTQVTVSS | high polyreactivity
22 | QVQLVESGGGLVQARGSLRLICAASGRTFEHNSMGWYRQAPGKERELVARITSGGRTYYADSVKGRFTISRDNAKNTVYLQMNSLKPEDTAVYYCATVGRGYDERHNYWGQGTQVTVSS | high polyreactivity

Row | Sequence | polyreactivity (PSR sort gate)
23 | QVQLVESGGGLVQAGGSLRLSCAASGITFYGYTMGWYRQAPGKERELVAAITSGGITYYADSVKGRFTISRDNAKNTVYLQMNSLKPEDTAVYYCNADDVWYEYDYWGEGTQVTVSS | high polyreactivity
24 | HVQLVESGGGLVQAGGSLRISCAASGRTFYSYVMGWYRQAPGKQRQLVAAISSGGGRTYYADSVKGRFTISRDNAKHTVYLQMNSLKPEDTAVYYCNAVTRGTRWGLPYEYWGQGTQVTVSS | high polyreactivity
25 | QVQLVESGGGLVQAGGSHRLSCAASGSTLSSYAMGWYRQAPGKERELVAAISSSSGSTYYADSVKGRFTISRDNAKNTVYLQMNSLKPEDTAVYYCAADFRYWGQGTQVTVSS | low polyreactivity
26 | QFQLVESGGGLVQAGGSLRLSCAASGGILYRYAMGWYRPAPGKERELVAAIRWSGGSTYYADSVKGRFTISRDNAKNTVYLQMNSLKPEDTAVYYCAADVYYYHVLDFDYWGQGTQVTVSS | low polyreactivity
27 | QVQLVESGGGLVQAGGSLRLSCAASGYIFTYNAMGWYRQAPGKERELVAAISSGGSTNYADSVKGRFTISRDNAKNTVYLQMNSLKPEDTAVYYCAAPVWTYDDYFSYSYSYGYWGQGTQVTVSS | low polyreactivity
28 | QVQLVESGGCLVQAGGSLRLSCPASGNNFTAYAMGWYRQAPAKERELVAAISSSGRTNYADSVKGRFTISRDNAKNTVYLQMNSLKPEDTAVYYCAAYRLSNPFYKYDYWGQGTQVTVSS | high polyreactivity
29 | QVQLVESGGGLVQAGGSLRLSCAASGFIFRYYAMGWYRQAPGKEREFVAAISSSGGSTYYADSVKGRFTISRDNAKNTVYLQMNSLKPEDTAVYYCAARSRQDNFYRSYNSWGQGTQVTVSS | high polyreactivity
30 | QVQLGESGGGLVQAGGSLRLSCAASGSTFPRYVMGWYRQAPGKERELVAAISSSSGRTFYADSVKGRFTISRDNAKNTVYLQMNSLKPEDTAVYYCAARTSFNVHYWGQGTQVTVSS | high polyreactivity
31 | QVQLVESGGGLLQAGGSLRLSCAASGSIFTLYDMGRYRQAPGKERELVAAITSGGSTDYADSVKGRFTISRDYAKNTVFLQMNSLKPEDTAVYYCNAEAYPYWYRGASRDYDYWGQGTQVTVSS | low polyreactivity
32 | QVQLVETGGGLVQAGGSLRLSCDASGRIFGGYAMGWYRKAPGKERELVAAISASGGRTYYADSVKGRFTISRDNAKNTVYLQMNSLKPEDNAVYYCAASFRRTSLRWLGEYWGQGTQVTVSS | high polyreactivity
33 | QFQLVESGGGLVQAGGSLRLSCAASGFTFPRYAMGWYRQAPGKERELVAAITSGDRTYYADSVKGRFTISRDNAKNTVYLQMNSLKPEDTAVYYCAKSSPRKSSQKHSFYEYNYWGQGTQVSVSS | high polyreactivity
34 | QVQLVESGGGLDQAGVRLRLSCAASGRIFISYAMGWYRQAPGNDTELVARISTRGGSTYYADSVKGRFTISRDNAKNTVYLQMNSLKPDDTAVYYCAADHHFCQYPGGGNRWYYYWGQGTHVTVSS | high polyreactivity
35 | QVQLVESGGGLVQAGGSLRLSCAASGSIFKWYAMGWYRQAPGKERELVAAITRGGSTNYADSVKGRFTISRDNAKNTVYLQMNSLKPEDTAVYYCNAVYTYRSGFGYWGQGTQVTVSS | low polyreactivity
36 | QVQLVESGGGLVQAGGSLRLSCAASGRIFFWYAMGWYRQAPGKERELVAAISKSGGSTYYADSVKGRFTISRDNAKNTVYLQMNSLKPEDTAVYYCARVSKRTWSGYYYWGQGTQVTVSS | high polyreactivity
37 | QVQLVESVGGLVQAGGSLRLTCAASGFTFGPYAMGCYRQAAGKERELVAAITNRGGSTYADSVKGRFTISRDNAKNTVYLQMNSLKPEDTAVYYCATVSALEYNYWGQGTQVTVSS | low polyreactivity
38 | QVQLVESGGGLVQAGGSLRLSCAASGRIFGPYAMGWYRQAPGKERELVAAITQRGGSTSYADSVKGRFTISRDNAKKTVYLQMNSLKPEDTAVYYCNVLSYGSIPRRGYYYVWGDYWGQGTQVTVSS | high polyreactivity
39 | QVQLVESGGGLVQAGGSLRLSCAASGSTLFYAMGWYRQAPGKERELHAAISWSGGSTRYADSVKGRFTISRDNAKNTVYLQMNIMKPEDTAVYYCNTYTKHTGYYWKYDYWGQGTQVTVSS | low polyreactivity
40 | QVQLVESGGGLVQAGGSLRLIFAASGRIFRPNAMGWYRQAPGKEREFVAAITSSSGTTYYADSVKGRFTISRDNAKNTVYLQMNSLKPEDSAVYYCAAKYTSRSYKYDYWGQGTQVTVSS | high polyreactivity
41 | QVQLVESGGGLVQAGGSLRLSCAASGSTFGYNAMGWYRQAPGKERELVAAITRSGGSTDYADSVKGRFTISRDNAKNTVYFQMNSLKPEDTAVYYCAAEGTGLQRYGYFGDDGYWGQGTQVTVSS | low polyreactivity
42 | QVQLVESGGGLVQAGGSLRLSCAASGSNFSSNAMGWYRQAPGKERELFAAITWSGGSTYYADSVKGRFTISRDNAKKTVYFEMNSLKPEDTAGFYCNARRNVRQTFGYEYWGQGTQVTVSS | high polyreactivity
43 | QVQLVESGGGLVQAGGSLRLSCAASGRTLRGYAMGWYRQAPGKERELVAAISKGGGSTFYADSVKGRFTISRDNAKNTVYLQMNSLKPEDTAVYYCAADYYSYTYYLDFDYWGQGTQVTVSS | high polyreactivity

Source: the nanobody polyreactivity screen of Harvey et al. (2022)
